Source: publication PMC8046350

Biological target: T1, Egalitarian (EGL) (UniProt Q9W1K4)
T1 sequence: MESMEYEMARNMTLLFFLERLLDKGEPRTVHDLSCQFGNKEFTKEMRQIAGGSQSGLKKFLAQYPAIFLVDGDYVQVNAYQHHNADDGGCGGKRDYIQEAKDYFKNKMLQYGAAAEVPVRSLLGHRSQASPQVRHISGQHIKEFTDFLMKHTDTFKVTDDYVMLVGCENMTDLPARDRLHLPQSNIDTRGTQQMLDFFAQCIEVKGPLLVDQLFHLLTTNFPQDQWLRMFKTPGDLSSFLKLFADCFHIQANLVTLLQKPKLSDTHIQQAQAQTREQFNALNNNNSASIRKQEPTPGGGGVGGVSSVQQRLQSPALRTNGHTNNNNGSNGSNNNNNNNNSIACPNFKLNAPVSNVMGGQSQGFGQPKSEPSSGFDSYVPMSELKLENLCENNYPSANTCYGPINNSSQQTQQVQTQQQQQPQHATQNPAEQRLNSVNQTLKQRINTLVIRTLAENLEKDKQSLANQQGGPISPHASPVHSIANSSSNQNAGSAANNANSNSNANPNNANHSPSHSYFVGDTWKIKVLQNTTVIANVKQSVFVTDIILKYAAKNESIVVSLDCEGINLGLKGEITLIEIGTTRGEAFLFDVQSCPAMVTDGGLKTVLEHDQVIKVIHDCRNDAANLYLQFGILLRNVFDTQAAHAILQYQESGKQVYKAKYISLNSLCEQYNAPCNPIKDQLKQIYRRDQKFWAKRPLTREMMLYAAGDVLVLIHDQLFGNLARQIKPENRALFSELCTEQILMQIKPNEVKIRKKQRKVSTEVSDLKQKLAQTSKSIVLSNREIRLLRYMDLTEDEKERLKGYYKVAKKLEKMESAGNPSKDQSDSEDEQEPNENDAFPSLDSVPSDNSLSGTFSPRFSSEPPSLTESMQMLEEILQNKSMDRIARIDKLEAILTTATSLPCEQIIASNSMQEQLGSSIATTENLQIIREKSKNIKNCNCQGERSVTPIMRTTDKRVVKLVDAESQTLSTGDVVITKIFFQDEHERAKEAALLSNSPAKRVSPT
Experiment: pull-down
Settings: reference (all sets normalized to TLS); EGL capture: DXB buffer (30 mM Hepes pH 7.3, 50 mM KCl, 2.5 mM MgCl2, 250 mM sucrose, 1 mM DTT), protease and RNase inhibitors, 90 min (binding temperature not …)

## fs(1)K10 TLS
  binding signal (fraction of TLS binding): 1
